Assay [1] has as its target T1, VEGF165 (293-VE) (UniProt P15692-4 27-191).
T1 construct: the UniProt canonical entry is a longer isoform; also called VEGF-A
In words: solution binding: VEGF165 incubated 45 min at 37 C with titrated VID, free VEGF measured by ELISA (Human VEGF DuoSet kit). How it is done:
(§1) After incubation, free VEGF was detected using the Human VEGF DuoSet ELISA Development Kit (R&D Systems Catalog No. DY293B) according to the manufacturer's instructions. The data was analyzed by sigmoidal curve fitting using Prism 4.

In assay [2] the target is T1, VEGF165 (293-VE). In words: solution binding: about 40 pM VEGF165 incubated with the protein, free VEGF read by DuoSet ELISA. On the procedure:
as §1

T1 sequence (P15692 other isoform, or with tags, fused parts or gaps limits assumed): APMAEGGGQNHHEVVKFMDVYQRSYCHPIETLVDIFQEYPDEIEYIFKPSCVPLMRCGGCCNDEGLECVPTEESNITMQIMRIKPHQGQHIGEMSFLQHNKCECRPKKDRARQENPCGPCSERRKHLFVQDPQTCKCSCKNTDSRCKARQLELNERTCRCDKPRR

B1: VID (fragment of ACVP-1 wherein the VID has the Fc domain fused to its C-terminus) (Fc fusion)
chain: GRPFVEMYSEIPEIIHMTEGRELVIPCRVTSPNITVTLKKFPLDTLIPDGKRIIWDSRKGFIISNATYKEIGLLTCEATVNGHLYKTNYLTHRQTNTIIDVVLSPSHGIELSVGEKLVLNCTARTELNVGIDFNWEYPSSKHQHKKLVNRDLKTQSGSEMKKFLSTLTIDGVTRSDQGLYTCAASSGLMTKKNSTFVRVHEK
notes: not shown: human IgG1 Fc region as in ACVP-1
The term EC50 denotes the midpoint of the concentration-response curve. Take B1: the results for the EC50 in the assay with VEGF165 (293-VE) [1] and with VEGF165 (293-VE) [2] were 0.0731 nM and ~0.7 nM, respectively.
